Source: publication PMC10241913 (Nature Communications, 2023)

Each binder was assayed against T1, ubiquitin-GST fusion protein (Ub-GST) (UniProt P0CG48 1-76) (assay: pull-down; screen: 25 μM ubiquitin-GST, 1 μM p97 (hexamer) and equal amounts of UBXD1 variant (released from GSH beads by PreScission) with GSH beads, 30 min, 4 °C, IP buffer). Details: both partners purified.
T1 construct: source: E. coli BL21 DE3 (T1r), purified

| Binder | binding result |
| --- | --- |
| UBXD1 Q278A/F286A/L288A (full length, recombinant) (natural protein, human, UniProt Q9BZV1 1-441, looked up, UBXD1 (UBXN6), human, mutant in the context of recombinant UBXD1-fl) MKKFFQEFKADIKFKSAGPGQKLKESVGEKAHKEKPNQPAPRPPRQGPTNEAQMAAAAALARLEQKQSRAWGPTSQDTIRNQVRKELQAEATVSGSPEAPGTNVVSEPREEGSAHLAVPGVYFTCPLTGATLRKDQRDACIKEAILLHFSTDPVAASIMKIYTFNKDQDRVKLGVDTIAKYLDNIHLHPEEEKYRKIKLQNKVFQERINCLEGTHEFFEAIGFQKVLLPAQDQEDPEEFYVLSETTLAQPQSLERHKEQLLAAEPVRAKLDRQRRVFAPSPLASQAEAPGDFFNLTAEEIKREQRLRSEAVERLSVLRTKAMREKEEQRGLRKYNYTLLRVRLPDGCLLQGTFYARERLGAVYGFVREALQSDWLPFELLASGGQKLSEDENLALNECGLVPSALLTFSWDMAVLEDIKAAGAEPDSILKPELLSAIEKLL | binds |
| UBXD1 R305A/R307A/V316A (full length, recombinant) (natural protein, human, UniProt Q9BZV1 1-441, looked up, UBXD1 (UBXN6), human, mutant in the context of recombinant UBXD1-fl) MKKFFQEFKADIKFKSAGPGQKLKESVGEKAHKEKPNQPAPRPPRQGPTNEAQMAAAAALARLEQKQSRAWGPTSQDTIRNQVRKELQAEATVSGSPEAPGTNVVSEPREEGSAHLAVPGVYFTCPLTGATLRKDQRDACIKEAILLHFSTDPVAASIMKIYTFNKDQDRVKLGVDTIAKYLDNIHLHPEEEKYRKIKLQNKVFQERINCLEGTHEFFEAIGFQKVLLPAQDQEDPEEFYVLSETTLAQPQSLERHKEQLLAAEPVRAKLDRQRRVFQPSPLASQFELPGDFFNLTAEEIKREQALASEAVERLSALRTKAMREKEEQRGLRKYNYTLLRVRLPDGCLLQGTFYARERLGAVYGFVREALQSDWLPFELLASGGQKLSEDENLALNECGLVPSALLTFSWDMAVLEDIKAAGAEPDSILKPELLSAIEKLL | binds |
| UBXD1 R305A (full length, recombinant) (natural protein, human, UniProt Q9BZV1 1-441, looked up, UBXD1 (UBXN6), human, mutant in the context of recombinant UBXD1-fl) MKKFFQEFKADIKFKSAGPGQKLKESVGEKAHKEKPNQPAPRPPRQGPTNEAQMAAAAALARLEQKQSRAWGPTSQDTIRNQVRKELQAEATVSGSPEAPGTNVVSEPREEGSAHLAVPGVYFTCPLTGATLRKDQRDACIKEAILLHFSTDPVAASIMKIYTFNKDQDRVKLGVDTIAKYLDNIHLHPEEEKYRKIKLQNKVFQERINCLEGTHEFFEAIGFQKVLLPAQDQEDPEEFYVLSETTLAQPQSLERHKEQLLAAEPVRAKLDRQRRVFQPSPLASQFELPGDFFNLTAEEIKREQALRSEAVERLSVLRTKAMREKEEQRGLRKYNYTLLRVRLPDGCLLQGTFYARERLGAVYGFVREALQSDWLPFELLASGGQKLSEDENLALNECGLVPSALLTFSWDMAVLEDIKAAGAEPDSILKPELLSAIEKLL | binds |
| UBXD1 R307A (full length, recombinant) (natural protein, human, UniProt Q9BZV1 1-441, looked up, UBXD1 (UBXN6), human, mutant in the context of recombinant UBXD1-fl) MKKFFQEFKADIKFKSAGPGQKLKESVGEKAHKEKPNQPAPRPPRQGPTNEAQMAAAAALARLEQKQSRAWGPTSQDTIRNQVRKELQAEATVSGSPEAPGTNVVSEPREEGSAHLAVPGVYFTCPLTGATLRKDQRDACIKEAILLHFSTDPVAASIMKIYTFNKDQDRVKLGVDTIAKYLDNIHLHPEEEKYRKIKLQNKVFQERINCLEGTHEFFEAIGFQKVLLPAQDQEDPEEFYVLSETTLAQPQSLERHKEQLLAAEPVRAKLDRQRRVFQPSPLASQFELPGDFFNLTAEEIKREQRLASEAVERLSVLRTKAMREKEEQRGLRKYNYTLLRVRLPDGCLLQGTFYARERLGAVYGFVREALQSDWLPFELLASGGQKLSEDENLALNECGLVPSALLTFSWDMAVLEDIKAAGAEPDSILKPELLSAIEKLL | binds |
| UBXD1 R274A (full length, recombinant) (natural protein, human, UniProt Q9BZV1 1-441, looked up, UBXD1 (UBXN6), human, mutant in the context of recombinant UBXD1-fl) MKKFFQEFKADIKFKSAGPGQKLKESVGEKAHKEKPNQPAPRPPRQGPTNEAQMAAAAALARLEQKQSRAWGPTSQDTIRNQVRKELQAEATVSGSPEAPGTNVVSEPREEGSAHLAVPGVYFTCPLTGATLRKDQRDACIKEAILLHFSTDPVAASIMKIYTFNKDQDRVKLGVDTIAKYLDNIHLHPEEEKYRKIKLQNKVFQERINCLEGTHEFFEAIGFQKVLLPAQDQEDPEEFYVLSETTLAQPQSLERHKEQLLAAEPVRAKLDRQARVFQPSPLASQFELPGDFFNLTAEEIKREQRLRSEAVERLSVLRTKAMREKEEQRGLRKYNYTLLRVRLPDGCLLQGTFYARERLGAVYGFVREALQSDWLPFELLASGGQKLSEDENLALNECGLVPSALLTFSWDMAVLEDIKAAGAEPDSILKPELLSAIEKLL | binds |
